Measurements as given in article PMC7020240.

Target: C-FLuc-MESA MEC construct (wild type) (P. falciparum)
Experiment: split reporter

N-FLuc-ANK1 fragment 3 (amino acids 823 - 1375) (domain or fragment)
fold increase of relative luciferase activity: 200 fold
